{
  "source": "patent US20250270289",
  "target": "Cav(pnY)GFP",
  "sequence (Q03135 whole entry)": "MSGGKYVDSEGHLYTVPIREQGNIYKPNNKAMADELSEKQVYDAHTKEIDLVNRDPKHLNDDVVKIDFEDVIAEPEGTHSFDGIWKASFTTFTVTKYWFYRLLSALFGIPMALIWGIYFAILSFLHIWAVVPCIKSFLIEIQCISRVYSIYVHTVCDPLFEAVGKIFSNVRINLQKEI",
  "data": [
    {"protein": "calf-intestinal alkaline phosphatase (protein) LVPVEEEDPAFWNRQAAQALDVAKKLQPIQTAAKNVILFLGDGMGVPTVTATRILKGQMNGKLGPETPLAMDQFPYVALSKTYNVDRQVPDSAGTATAYLCGVKGNYRTIGVSAAARYNQCKTTRGNEVTSVMNRAKKAGKSVGVVTTTRVQHASPAGAYAHTVNRNWYSDADLPADAQMNGCQDIAAQLVNNMDIDVILGGGRKYMFPVGTPDPEYPDDASVNGVRKRKQNLVQAWQAKHQGAQYVWNRTALLQAADDSSVTHLMGLFEPADMKYNVQQDHTKDPTLQEMTEVALRVVSRNPRGFYLFVEGGRIDHGHHDDKAYMALTEAGMFDNAIAKANELTSELDTLILVTADHSHVFSFGGYTLRGTSIFGLAPSKALDSKSYTSILYGNGPGYALGGGSRPDVNDSTSEDPSYQQQAAVPQASETHGGEDVAVFARGPQAHLVHGVEEETFVAHIMAFAGCVEPYTDCNLPAPTTATSIPD", "values": [
      {"measurement": "dephosphorylation of pnY (Western blot with phospho-caveolin antibody)", "value": "Cav(pnY)GFP was stable in buffered conditions, but dephosphorylated in a time and concentration dependent fashion"},
      {"measurement": "dephosphorylation of pnY, seen as loss of the phospho-caveolin antibody signal in a Western blot", "value": "IB:pCav band present with CIP buffer alone, absent with CIP buffer + enzyme; total protein band present in both lanes"}
    ]},
    {"protein": "protein Tyr phosphatase 1B (protein) MEMEKEFEQIDKSGSWAAIYQDIRHEASDFPCRVAKLPKNKNRNRYRDVSPFDHSRIKLHQEDNDYINASLIKMEEAQRSYILTQGPLPNTCGHFWEMVWEQKSRGVVMLNRVMEKGSLKCAQYWPQKEEKEMIFEDTNLKLTLISEDIKSYYTVRQLELENLTTQETREILHFHYTTWPDFGVPESPASFLNFLFKVRESGSLSPEHGPVVVHCSAGIGRSGTFCLADTCLLLMDKRKDPSSVDIKKVLLEMRKFRMGLIQTADQLRFSYLAVIEGAKFIMGDSSVQDQWKELSHEDLEPPPEHIPPPPRPPKRILEPHN", "values": [
      {"measurement": "dephosphorylation of pnY (Western blot with phospho-caveolin antibody)", "value": "Cav(pnY)GFP was stable in buffered conditions, but dephosphorylated in a time and concentration dependent fashion"},
      {"measurement": "dephosphorylation of pnY, seen as loss of the phospho-caveolin antibody signal in a Western blot", "value": "IB:pCav band present with PTP1B buffer alone, absent with PTP1B buffer + enzyme; total protein band present in both lanes, faint in the enzyme lane"}
    ]}
  ]
}
